Experimental data taken from publication PMC3160285, “Fukutin-Related Protein Resides in the Golgi Cisternae of Skeletal Muscle Fibres and Forms Disulfide-Linked Homodimers via an N-Terminal Interaction” (PLoS ONE, 2011).

B1: FKRP-282 (C-terminal truncation mutant of FKRP) (domain or fragment, human, UniProt Q9H9S5 1-282, looked up)
chain: MRLTRCQAALAAAITLNLLVLFYVSWLQHQPRNSRARGPRRASAAGPRVTVLVREFEAFDNAVPELVDSFLQQDPAQPVVVAADTLPYPPLALPRIPNVRLALLQPALDRPAAASRPETYVATEFVALVPDGARAEAPGLLERMVEALRAGSARLVAAPVATANPARCLALNVSLREWTARYGAAPAAPRCDALDGDAVVLLRARDLFNLSAPLARPVGTSLFLQTALRGWAVQLLDLTFAAARQPPLATAHARWKAEREGRARRAALLRALGIRLVSWEGG
notes: fukutin-related protein (FKRP), human; C-terminal truncation, last amino acid 282; source: COS-7, transfected, in lysate (5 mM NEM)
B2: FKRP-373 (C-terminal truncation mutant of FKRP) (domain or fragment, human, UniProt Q9H9S5 1-373, looked up)
chain: MRLTRCQAALAAAITLNLLVLFYVSWLQHQPRNSRARGPRRASAAGPRVTVLVREFEAFDNAVPELVDSFLQQDPAQPVVVAADTLPYPPLALPRIPNVRLALLQPALDRPAAASRPETYVATEFVALVPDGARAEAPGLLERMVEALRAGSARLVAAPVATANPARCLALNVSLREWTARYGAAPAAPRCDALDGDAVVLLRARDLFNLSAPLARPVGTSLFLQTALRGWAVQLLDLTFAAARQPPLATAHARWKAEREGRARRAALLRALGIRLVSWEGGRLEWFGCNKETTRCFGTVVGDTPAYLYEERWTPPCCLRALRETARYVVGVLEAAGVRYWLEGGSLLGAARHGDIIPWDYDVDLGIYLEDVG
notes: fukutin-related protein (FKRP), human; C-terminal truncation, last amino acid 373; source: COS-7, transfected, in lysate (5 mM NEM)
B3: FKRP-157 (C-terminal truncation mutant of FKRP) (domain or fragment, human, UniProt Q9H9S5 1-157, looked up)
chain: MRLTRCQAALAAAITLNLLVLFYVSWLQHQPRNSRARGPRRASAAGPRVTVLVREFEAFDNAVPELVDSFLQQDPAQPVVVAADTLPYPPLALPRIPNVRLALLQPALDRPAAASRPETYVATEFVALVPDGARAEAPGLLERMVEALRAGSARLVA
notes: fukutin-related protein (FKRP), human; source: COS-7, transfected, in lysate (5 mM NEM)
B4: FKRP Cys168Ser (natural protein, human, UniProt Q9H9S5 1-495, looked up)
chain: MRLTRCQAALAAAITLNLLVLFYVSWLQHQPRNSRARGPRRASAAGPRVTVLVREFEAFDNAVPELVDSFLQQDPAQPVVVAADTLPYPPLALPRIPNVRLALLQPALDRPAAASRPETYVATEFVALVPDGARAEAPGLLERMVEALRAGSARLVAAPVATANPARSLALNVSLREWTARYGAAPAAPRCDALDGDAVVLLRARDLFNLSAPLARPVGTSLFLQTALRGWAVQLLDLTFAAARQPPLATAHARWKAEREGRARRAALLRALGIRLVSWEGGRLEWFGCNKETTRCFGTVVGDTPAYLYEERWTPPCCLRALRETARYVVGVLEAAGVRYWLEGGSLLGAARHGDIIPWDYDVDLGIYLEDVGNCEQLRGAEAGSVVDERGFVWEKAVEGDFFRVQYSESNHLHVDLWPFYPRNGVMTKDTWLDHRQDVEFPEHFLQPLVPLPFAGFVAQAPNNYRRFLELKFGPGVIENPQYPNPALLSLTGSG
notes: fukutin-related protein (FKRP), human, 495 aa, made from pcDNA3.1-FKRP by site-directed mutagenesis; also called FKRP-C168S; source: COS-7, transfected, in lysate (5 mM NEM)
B5: FKRP-Asn172Gln/Asn209Gln (natural protein, human, UniProt Q9H9S5 1-495, looked up)
chain: MRLTRCQAALAAAITLNLLVLFYVSWLQHQPRNSRARGPRRASAAGPRVTVLVREFEAFDNAVPELVDSFLQQDPAQPVVVAADTLPYPPLALPRIPNVRLALLQPALDRPAAASRPETYVATEFVALVPDGARAEAPGLLERMVEALRAGSARLVAAPVATANPARCLALQVSLREWTARYGAAPAAPRCDALDGDAVVLLRARDLFQLSAPLARPVGTSLFLQTALRGWAVQLLDLTFAAARQPPLATAHARWKAEREGRARRAALLRALGIRLVSWEGGRLEWFGCNKETTRCFGTVVGDTPAYLYEERWTPPCCLRALRETARYVVGVLEAAGVRYWLEGGSLLGAARHGDIIPWDYDVDLGIYLEDVGNCEQLRGAEAGSVVDERGFVWEKAVEGDFFRVQYSESNHLHVDLWPFYPRNGVMTKDTWLDHRQDVEFPEHFLQPLVPLPFAGFVAQAPNNYRRFLELKFGPGVIENPQYPNPALLSLTGSG
notes: fukutin-related protein (FKRP), human, 495 aa, made from pcDNA3.1-FKRP by site-directed mutagenesis; also called double mutant; source: COS-7, transfected, in lysate (5 mM NEM)
B6: FKRP-Cys289Ser (natural protein, human, UniProt Q9H9S5 1-495, looked up)
chain: MRLTRCQAALAAAITLNLLVLFYVSWLQHQPRNSRARGPRRASAAGPRVTVLVREFEAFDNAVPELVDSFLQQDPAQPVVVAADTLPYPPLALPRIPNVRLALLQPALDRPAAASRPETYVATEFVALVPDGARAEAPGLLERMVEALRAGSARLVAAPVATANPARCLALNVSLREWTARYGAAPAAPRCDALDGDAVVLLRARDLFNLSAPLARPVGTSLFLQTALRGWAVQLLDLTFAAARQPPLATAHARWKAEREGRARRAALLRALGIRLVSWEGGRLEWFGSNKETTRCFGTVVGDTPAYLYEERWTPPCCLRALRETARYVVGVLEAAGVRYWLEGGSLLGAARHGDIIPWDYDVDLGIYLEDVGNCEQLRGAEAGSVVDERGFVWEKAVEGDFFRVQYSESNHLHVDLWPFYPRNGVMTKDTWLDHRQDVEFPEHFLQPLVPLPFAGFVAQAPNNYRRFLELKFGPGVIENPQYPNPALLSLTGSG
notes: fukutin-related protein (FKRP), human, 495 aa, made from pcDNA3.1-FKRP by site-directed mutagenesis; also called FKRP-C289S; source: COS-7, transfected, in lysate (5 mM NEM)
B7: Fukutin-related protein (FKRP), human, wild type, untagged (pcDNA3.1-FKRP) (natural protein, UniProt Q9H9S5 1-495, looked up)
chain: MRLTRCQAALAAAITLNLLVLFYVSWLQHQPRNSRARGPRRASAAGPRVTVLVREFEAFDNAVPELVDSFLQQDPAQPVVVAADTLPYPPLALPRIPNVRLALLQPALDRPAAASRPETYVATEFVALVPDGARAEAPGLLERMVEALRAGSARLVAAPVATANPARCLALNVSLREWTARYGAAPAAPRCDALDGDAVVLLRARDLFNLSAPLARPVGTSLFLQTALRGWAVQLLDLTFAAARQPPLATAHARWKAEREGRARRAALLRALGIRLVSWEGGRLEWFGCNKETTRCFGTVVGDTPAYLYEERWTPPCCLRALRETARYVVGVLEAAGVRYWLEGGSLLGAARHGDIIPWDYDVDLGIYLEDVGNCEQLRGAEAGSVVDERGFVWEKAVEGDFFRVQYSESNHLHVDLWPFYPRNGVMTKDTWLDHRQDVEFPEHFLQPLVPLPFAGFVAQAPNNYRRFLELKFGPGVIENPQYPNPALLSLTGSG
modifications: N-linked glycans of high mannose and/or hybrid type at Asn172 and Asn209
notes: fukutin-related protein (FKRP), human, 495 aa; Same construct expressed in two cell lines; the assay's format names the cell line; also called hFKRP; full length FKRP; source: COS-7 or BHK-21, transfected (pcDNA3.1-FKRP), in lysate
B8: FKRP Cys296Ser (natural protein, human, UniProt Q9H9S5 1-495, looked up)
chain: MRLTRCQAALAAAITLNLLVLFYVSWLQHQPRNSRARGPRRASAAGPRVTVLVREFEAFDNAVPELVDSFLQQDPAQPVVVAADTLPYPPLALPRIPNVRLALLQPALDRPAAASRPETYVATEFVALVPDGARAEAPGLLERMVEALRAGSARLVAAPVATANPARCLALNVSLREWTARYGAAPAAPRCDALDGDAVVLLRARDLFNLSAPLARPVGTSLFLQTALRGWAVQLLDLTFAAARQPPLATAHARWKAEREGRARRAALLRALGIRLVSWEGGRLEWFGCNKETTRSFGTVVGDTPAYLYEERWTPPCCLRALRETARYVVGVLEAAGVRYWLEGGSLLGAARHGDIIPWDYDVDLGIYLEDVGNCEQLRGAEAGSVVDERGFVWEKAVEGDFFRVQYSESNHLHVDLWPFYPRNGVMTKDTWLDHRQDVEFPEHFLQPLVPLPFAGFVAQAPNNYRRFLELKFGPGVIENPQYPNPALLSLTGSG
notes: fukutin-related protein (FKRP), human, 495 aa, made from pcDNA3.1-FKRP by site-directed mutagenesis; also called FKRP-C296S; source: COS-7, transfected, in lysate (5 mM NEM)
B9: FKRP-Asn172Gln (natural protein, human, UniProt Q9H9S5 1-495, looked up)
chain: MRLTRCQAALAAAITLNLLVLFYVSWLQHQPRNSRARGPRRASAAGPRVTVLVREFEAFDNAVPELVDSFLQQDPAQPVVVAADTLPYPPLALPRIPNVRLALLQPALDRPAAASRPETYVATEFVALVPDGARAEAPGLLERMVEALRAGSARLVAAPVATANPARCLALQVSLREWTARYGAAPAAPRCDALDGDAVVLLRARDLFNLSAPLARPVGTSLFLQTALRGWAVQLLDLTFAAARQPPLATAHARWKAEREGRARRAALLRALGIRLVSWEGGRLEWFGCNKETTRCFGTVVGDTPAYLYEERWTPPCCLRALRETARYVVGVLEAAGVRYWLEGGSLLGAARHGDIIPWDYDVDLGIYLEDVGNCEQLRGAEAGSVVDERGFVWEKAVEGDFFRVQYSESNHLHVDLWPFYPRNGVMTKDTWLDHRQDVEFPEHFLQPLVPLPFAGFVAQAPNNYRRFLELKFGPGVIENPQYPNPALLSLTGSG
notes: fukutin-related protein (FKRP), human, 495 aa, made from pcDNA3.1-FKRP by site-directed mutagenesis; source: COS-7, transfected, in lysate (5 mM NEM)
B10: FKRP-Asn209Gln (natural protein, human, UniProt Q9H9S5 1-495, looked up)
chain: MRLTRCQAALAAAITLNLLVLFYVSWLQHQPRNSRARGPRRASAAGPRVTVLVREFEAFDNAVPELVDSFLQQDPAQPVVVAADTLPYPPLALPRIPNVRLALLQPALDRPAAASRPETYVATEFVALVPDGARAEAPGLLERMVEALRAGSARLVAAPVATANPARCLALNVSLREWTARYGAAPAAPRCDALDGDAVVLLRARDLFQLSAPLARPVGTSLFLQTALRGWAVQLLDLTFAAARQPPLATAHARWKAEREGRARRAALLRALGIRLVSWEGGRLEWFGCNKETTRCFGTVVGDTPAYLYEERWTPPCCLRALRETARYVVGVLEAAGVRYWLEGGSLLGAARHGDIIPWDYDVDLGIYLEDVGNCEQLRGAEAGSVVDERGFVWEKAVEGDFFRVQYSESNHLHVDLWPFYPRNGVMTKDTWLDHRQDVEFPEHFLQPLVPLPFAGFVAQAPNNYRRFLELKFGPGVIENPQYPNPALLSLTGSG
notes: as for B9
B11: FKRP Cys375Ser (natural protein, human, UniProt Q9H9S5 1-495, looked up)
chain: MRLTRCQAALAAAITLNLLVLFYVSWLQHQPRNSRARGPRRASAAGPRVTVLVREFEAFDNAVPELVDSFLQQDPAQPVVVAADTLPYPPLALPRIPNVRLALLQPALDRPAAASRPETYVATEFVALVPDGARAEAPGLLERMVEALRAGSARLVAAPVATANPARCLALNVSLREWTARYGAAPAAPRCDALDGDAVVLLRARDLFNLSAPLARPVGTSLFLQTALRGWAVQLLDLTFAAARQPPLATAHARWKAEREGRARRAALLRALGIRLVSWEGGRLEWFGCNKETTRCFGTVVGDTPAYLYEERWTPPCCLRALRETARYVVGVLEAAGVRYWLEGGSLLGAARHGDIIPWDYDVDLGIYLEDVGNSEQLRGAEAGSVVDERGFVWEKAVEGDFFRVQYSESNHLHVDLWPFYPRNGVMTKDTWLDHRQDVEFPEHFLQPLVPLPFAGFVAQAPNNYRRFLELKFGPGVIENPQYPNPALLSLTGSG
notes: fukutin-related protein (FKRP), human, 495 aa, made from pcDNA3.1-FKRP by site-directed mutagenesis; also called FKRP-C375S; source: COS-7, transfected, in lysate (5 mM NEM)
B12: FKRP Cys191Ser (natural protein, human, UniProt Q9H9S5 1-495, looked up)
chain: MRLTRCQAALAAAITLNLLVLFYVSWLQHQPRNSRARGPRRASAAGPRVTVLVREFEAFDNAVPELVDSFLQQDPAQPVVVAADTLPYPPLALPRIPNVRLALLQPALDRPAAASRPETYVATEFVALVPDGARAEAPGLLERMVEALRAGSARLVAAPVATANPARCLALNVSLREWTARYGAAPAAPRSDALDGDAVVLLRARDLFNLSAPLARPVGTSLFLQTALRGWAVQLLDLTFAAARQPPLATAHARWKAEREGRARRAALLRALGIRLVSWEGGRLEWFGCNKETTRCFGTVVGDTPAYLYEERWTPPCCLRALRETARYVVGVLEAAGVRYWLEGGSLLGAARHGDIIPWDYDVDLGIYLEDVGNCEQLRGAEAGSVVDERGFVWEKAVEGDFFRVQYSESNHLHVDLWPFYPRNGVMTKDTWLDHRQDVEFPEHFLQPLVPLPFAGFVAQAPNNYRRFLELKFGPGVIENPQYPNPALLSLTGSG
notes: fukutin-related protein (FKRP), human, 495 aa, made from pcDNA3.1-FKRP by site-directed mutagenesis; also called FKRP-C191S; source: COS-7, transfected, in lysate (5 mM NEM)

Target: the molecule itself
Test: SDS-PAGE (non-reducing and reducing) with Western blot; cleared COS-7 lysates prepared with 5 mM NEM; untreated or reduced with 330-400 mM DTT at RT for 30 min; 4-12% gel; detection with FKRP207 antibody

Molecule	stoichiometry N
B1	2
B2	2
B3	2
B4	2
B5	2
B6	2
B7	2
B8	2
B9	2
B10	2
B11	2
B12	2

Target: FKRP Cys317Ser/Cys318Ser (human) (UniProt Q9H9S5)
Test: as above

Molecule	stoichiometry N
FKRP Cys317Ser/Cys318Ser (from UniProt Q9H9S5 1-495) (natural protein)	2
